Patent US12540197B2, “Anti-tissue factor antibodies and antibody conjugates, compositions comprising anti-tissue factor antibodies or antibody conjugates, and methods of making and using anti-tissue factor antibodies and antibody conjugates” (SUTRO BIOPHARMA, INC., priority 2023, dated 2026)

How the values were obtained:
[1] = molecular target: T1, human TF (Homo sapiens, UniProt P13726); assay: Biacore off-rate and kinetic binding, human TF; conditions: Table 12; 25° C., 1:1 Langmuir
T1 construct: purchased Lake Pharma
Method: (§1) Anti-Fc polyclonal antibodies were immobilized onto a CM4 chip (Cytiva #BR100534) using amine coupling chemistry (Human Antibody Capture Kit, Cytiva #BR100839). The immobilization steps were carried out at a flow rate of 25 μL/min in 1×HBS-EP+buffer (Cytiva #BR100669). The sensor surfaces were activated for 7 min with a mixture of N-hydroxysuccinimide (NHS, 0.05 M) and 1-ethyl-3-(3-dimethylaminopropyl)-carbodiimide (EDC, 0.2 M). The anti-Fc polyclonal antibodies were injected over all 4 flow cells at a concentration of 25 μg/mL in 10 mM sodium acetate, pH 4.5, for 7 min. Ethanolamine (1 M, pH 8.5) was injected for 7 min to block any remaining activated groups. Approximately 6,000 response units (RU) of capture antibody was immobilized on each flow cell.
(§2) Off-rate and kinetic binding experiments were performed at 25° C. using 1×HBS-EP+buffer. Antibodies were injected over the anti-Fc surface at a concentration of 3 μg/mL for 12 seconds at a flow rate of 10 μL/min on flow cells 2, 3 and 4, followed by a buffer wash for 30 seconds at the same flow rate. Single point off-rate analysis was carried out using an antigen concentration of 100 nM. […] After capturing ligand (antibody) on the anti-Fc surface, the analyte (human TF, Lake Pharma; cynomolgus TF, Sino Bio #90885-C08H; mouse TF, R&D Systems #3178-PA) was bound for 180 seconds, followed by a 420 second dissociation phase at a flow rate of 50 μL/min. Between each ligand capture and analyte binding cycle, regeneration was carried out using 2 injections of 10 mM glycine pH 2.0 for 30 seconds at 30 μL/min, followed by a 30 second buffer wash step.
(§3) The data were fit with the Biacore T200 Evaluation software, using a 1:1 Langmuir binding model. KD (affinity, nM) was determined as a ratio of the kinetic rate constants calculated from the fits of the association and dissociation phases.
(§4) Anti-Fc polyclonal antibodies were immobilized onto a CM4 chip (Cytiva #BR100534) using amine coupling chemistry (Human Antibody Capture Kit, Cytiva #BR100839). The immobilization steps were carried out at a flow rate of 25 μL/min in 1×HBS-EP+buffer (Cytiva #BR100669). The sensor surfaces were activated for 7 min with a mixture of NHS (0.05 M) and EDC (0.2 M). The Anti-Fc antibodies were injected over all 4 flow cells at a concentration of 25 ug/ml in 10 mM sodium acetate, pH 4.5, for 7 min. Ethanolamine (1 M, pH 8.5) was injected for 7 min to block any remaining activated groups. Approximately 6,000 response units (RU) of capture antibody was immobilized on each flow cell. Off-rate and kinetic binding experiments were performed at 25° C. using 1×HBS-EP+buffer. Antibodies or ADCs were injected over the anti-Fc surface at a concentration of 3 μg/mL for 12 seconds at a flow rate of 10 μL/min on flow cells 2, 3 and 4, followed by a buffer wash for 30 seconds at the same flow rate. […] After capturing ligand (antibody) on the anti-Fc surface, the analyte (human TF, Lake Pharma; cynomolgus TF, Sino Bio #90885-C08H; mouse TF, R&D Systems #3178-PA) was bound for 180 seconds, followed by a 420 second dissociation phase at a flow rate of 50 μL/min. Between each ligand capture and analyte binding cycle, regeneration was carried out using 2 injections of 10 mM Glycine pH 2.0 for 30 seconds at 30 μL/min, followed by a 30 second buffer wash step. The data was fit with the Biacore T200 Evaluation software, using a 1-1 Langmuir binding model. KD (affinity, nM) was determined as a ratio of the kinetic rate constants calculated from the fits of the association and dissociation phases.

[2] = tested on: cynomolgus TF; assay: Biacore off-rate and kinetic binding, cynomolgus TF; conditions: Table 12; 25° C., 1:1 Langmuir
Method: as §1, §2, §3, §4

[3] = tested on: HEK293T; assay: FACS cell-binding assay on parental HEK293T cells; conditions: Table 16, parental cells
Description: HEK293T, BxPC3 cells (TF positive) and NCI-H1703 (TF negative) cells were obtained from ATCC (American Type Culture Collection) and maintained in DMEM:F12 (1:1), high glucose (Corning) supplemented with 10% heat-inactivated fetal bovine serum (ThermoScientific), 1× Penicillin/Streptomycin (Corning) and 2 mmol glutamax (Thermo Fisher Scientific). To generate cells that stably expressing human tissue factor (HEK293T-humanTF) or cynomolgus tissue factor (HEK293T-cynoTF), HEK293T cells were transfected with plasmid vectors that contain the corresponding protein sequence and stable clones were selected with puromycin.
For a fluorescence-activated cell sorting (FACS) cell-binding assay, cells were collected by Accutase and counted by the Vi-CELL Cell Viability Analyzersharvested and, then re-suspended in FACS buffer (DPBS buffer supplemented with 1% bovine serum albumin). A total of 200,000 cells in 100 μL were incubated on ice with 100 μL of anti-TF antibodies in each well of a 96-well plate. Cells were washed twice with ice-cold FACS buffer and then incubated on ice for 60 mins with 5 μg/mL Alexa 647-labeled donkey anti-human Fc antibody (Jackson ImmunoResearch). Unstained cells and cells stained with secondary antibody alone were used as controls. Cells were washed twice with FACS buffer and analyzed using a BD FACS Canto system. Geometric mean fluorescence intensities (MFI) were fitted using non-linear regression analysis with one site specific binding equation on GraphPad Prism (GraphPad Software; La Jolla, CA).

cynomolgus TF, sequence (as listed by the source): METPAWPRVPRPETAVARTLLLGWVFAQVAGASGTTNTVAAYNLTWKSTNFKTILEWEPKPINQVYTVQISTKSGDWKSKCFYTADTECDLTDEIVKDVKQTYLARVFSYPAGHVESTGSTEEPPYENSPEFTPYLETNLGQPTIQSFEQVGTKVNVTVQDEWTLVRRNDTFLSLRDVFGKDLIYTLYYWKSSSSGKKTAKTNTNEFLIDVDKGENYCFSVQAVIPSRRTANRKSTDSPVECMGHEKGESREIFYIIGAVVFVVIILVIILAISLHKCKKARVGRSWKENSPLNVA
T1 sequence (P13726 33-295): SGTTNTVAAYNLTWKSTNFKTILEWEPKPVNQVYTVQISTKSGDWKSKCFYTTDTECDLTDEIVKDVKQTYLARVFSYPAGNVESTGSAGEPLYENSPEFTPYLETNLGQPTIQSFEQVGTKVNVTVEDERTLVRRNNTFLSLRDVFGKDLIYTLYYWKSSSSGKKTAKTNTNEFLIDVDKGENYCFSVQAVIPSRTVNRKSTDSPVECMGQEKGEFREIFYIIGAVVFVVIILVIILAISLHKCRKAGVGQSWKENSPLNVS

Molecule | Biacore human TF kinetics ka [1] [M⁻¹ s⁻¹] | Biacore human TF kinetics kd [1] [s⁻¹] | Biacore cynomolgus TF kinetics ka [2] [M⁻¹ s⁻¹] | Biacore cynomolgus TF kinetics kd [2] [s⁻¹] | HEK293T Bmax (MFI) [3] [MFI]
47 (antibody, pAzMeF at Y180/F404; conjugate) heavy: MEVQLVESGGGLVQPGGSLRLSCAASGFSISSYDMSWVRQAPGKGLEWIGIIGSNGRTYYPDSVKGRFTISRDNSKNTVTLQMNSLRAEDTAVYYCARGLYDGTGNIWGQGTLVTVSSASTKGPSVFPLAPSSKSTSGGTAALGCLVKDYFPEPVTVSWNSGALTSGVHTFPAVLQSSGLSLSSVVTVPSSSLGTQTYICNVNHKPSNTKVDKKVEPKSCDKTHTCPPCPAPELLGGPSVFLFPPKPKDTLMISRTPEVTCVVVDVSHEDPEVKFNWYVDGVEVHNAKTKPREEQYNSTYRVVSVLTVLHQDWLNGKEYKCKVSNKALPAPIEKTISKAKGQPREPQVYTLPPSREEMTKNQVSLTCLVKGFYPSDIAVEWESNGQPENNYKTTPPVLDSDGSFLYSKLTVDKSRWQQGNVFSCSVMHEALHNHYTQKSLSLSPGK light: MDLQMTQSPSSLSASVGDRVTITCRASQSVYGNNWLSWYQQKPGKAPKLLIYGASKLASGVPSRFSGSGSGTQFTLTISSLQPEDFATYYCQGTYYSGDWYFAFGQGTKVEIKRTVAAPSVFIFPPSDEQLKSGTASVVCLLNNFYPREAKVQWKVDNALQSGNSQESVTEQDSKDSTYSLSSTLTLSKADYEKHKVYACEVTHQGLSSPVTKSFNRGEC | 54000 | 0.000422 | 82700 | 0.00166 | 1285
48 (antibody, pAzMeF at Y180/F404; conjugate) heavy: MQVQVVESGGGLVKPGGSLRLSCAASGFSISSYDMSWIRQAPGKGLEWIGIIGSNGRTYYADSVKGRFTISRNTNENTVYLQMNSLRAEDTAVYYCARGLYDGTGNIWGQGTLVTVSSASTKGPSVFPLAPSSKSTSGGTAALGCLVKDYFPEPVTVSWNSGALTSGVHTFPAVLQSSGLSLSSVVTVPSSSLGTQTYICNVNHKPSNTKVDKKVEPKSCDKTHTCPPCPAPELLGGPSVFLFPPKPKDTLMISRTPEVTCVVVDVSHEDPEVKFNWYVDGVEVHNAKTKPREEQYNSTYRVVSVLTVLHQDWLNGKEYKCKVSNKALPAPIEKTISKAKGQPREPQVYTLPPSREEMTKNQVSLTCLVKGFYPSDIAVEWESNGQPENNYKTTPPVLDSDGSFLYSKLTVDKSRWQQGNVFSCSVMHEALHNHYTQKSLSLSPGK light: MDIQMTQSPSSLSASVGDRVTITCQASQSVYGNNWLSWYQQKPGKAPKLLIYGASKLASGVPSRFSGSGSGTDFTLTISSLQPEDFATYYCQGTYYSGDWYFAFGGGTKVEIKRTVAAPSVFIFPPSDEQLKSGTASVVCLLNNFYPREAKVQWKVDNALQSGNSQESVTEQDSKDSTYSLSSTLTLSKADYEKHKVYACEVTHQGLSSPVTKSFNRGEC | 71200 | 0.00124 | 121000 | 0.00735 | 1232
49 (antibody, pAzMeF at Y180/F404; conjugate) heavy: MQVQVQESGPGLVKPPGTLSLTCAVSGFSLSYYGVSWVRQPPGKGLEWIGTIDSSGRTYYNPSLKSRVTISNDNAPNTVSLKLSSVTAADTAVYYCARDFYGWNSGALDIWGQGTLVTVSSASTKGPSVFPLAPSSKSTSGGTAALGCLVKDYFPEPVTVSWNSGALTSGVHTFPAVLQSSGLSLSSVVTVPSSSLGTQTYICNVNHKPSNTKVDKKVEPKSCDKTHTCPPCPAPELLGGPSVFLFPPKPKDTLMISRTPEVTCVVVDVSHEDPEVKFNWYVDGVEVHNAKTKPREEQYNSTYRVVSVLTVLHQDWLNGKEYKCKVSNKALPAPIEKTISKAKGQPREPQVYTLPPSREEMTKNQVSLTCLVKGFYPSDIAVEWESNGQPENNYKTTPPVLDSDGSFLYSKLTVDKSRWQQGNVFSCSVMHEALHNHYTQKSLSLSPGK light: MDLQLTQSPSTLSASVGDRVTITCRASQSVYSNKYLSWYQQKPGKAPKLLIYKASTLASGVPSRFSGSGSGTEFTLTISSLQPDDFATYYCAAAYSDDSDTAFGQGTKVEIKRTVAAPSVFIFPPSDEQLKSGTASVVCLLNNFYPREAKVQWKVDNALQSGNSQESVTEQDSKDSTYSLSSTLTLSKADYEKHKVYACEVTHQGLSSPVTKSFNRGEC | 62500 | 0.000865 | 80800 | 0.00241 | 1366
